Data taken from article PMC6488028.

Molecular target: GenB1 (aminotransferase involved in C6'-amination, Micromonospora echinospora) (Micromonospora echinospora)
Experiment: crystal structure

stoichiometry N: 2
Substance: GenB1 (aminotransferase involved in C6'-amination, Micromonospora echinospora) (enzyme)
